Key:
Assay in all cases: purified protein
Conditions in all cases: 0.25 mM NADPH, 50 mM sodium phosphate pH 7.0, 30 °C, reduction
purified protein [1] = substrate: O=CC(O)CO
purified protein [2] = substrate: CC(=O)C=O; format: biochemical, Zea mays
purified protein [3] = substrate: O=Cc1ccc([N+](=O)[O-])cc1; format: biochemical, Zea mays

B1: ZmAKR4C13 (Zea mays) (protein)
chain: MASAQAVGQGERGHFVLKSGHTIPAVGLGTWRAGSDTAHSVRTAIAEAGYRHVDTAAQYGVEKEVGRGLKAAMEGGINRKDLFVTSKLWCTELAPDRVRPALEKTLKDLQLDYLDLYLIHWPFRLKDGAHMPPEAGEVLEFDMEGVWREMEGLVKDGLVKDIGVCNYTVAKLNRLMRSANVPPAVCQMEMHPGWKNDRIFEACKKHGIHVTAYSPLGSSEKNLAHDPLVEKVANKLDKTPGQVLLRWALQRGTSVIPKSTRDERIKENIQVFGWEIPEEDFRALCGIKDEKRVLTGEELFVNKTHGPYKSATEVWDHED
notes: monomer
B1 gave a Km (purified protein [1]) of 1460 ± 290 µM, a kcat (purified protein [1]) of 18 s⁻¹ and a kcat/Km (purified protein [1]) of 12400 M⁻¹ s⁻¹. For the same protein, the Km (purified protein [2]) was 940 ± 80 µM, the kcat (purified protein [2]) was 2.21 s⁻¹ and the kcat/Km (purified protein [2]) was 2350 M⁻¹ s⁻¹. The Km (purified protein [3]) was 100 ± 20 µM, the kcat (purified protein [3]) was 0.65 s⁻¹ and the kcat/Km (purified protein [3]) was 6510 M⁻¹ s⁻¹.

Reference: publication PMC12302338, “Functional genomics and structural insights into maize aldo-keto reductase-4 family: Stress metabolism and substrate specificity in embryos” (The Journal of Biological Chemistry, 2025)
